Tests used:
[1] = tested on: Wistar line rats subjected to gamma-irradiation; assay: Survival of rats after gamma-irradiation at a dose of 6 Gy; conditions: for number of rats survived: groups of 6 rats, intravenous before irradiation
Method: The radioprotector properties of peroxiredoxin in experiments in vivo are determined on an example of protecting animals from the action of gamma-irradiation in a sublethal dose with an intensity of 6 Gy.
Simultaneous irradiation of all animals (Wistar line rats weighing 200 grams) was carried out on a GUBE apparatus. The exposure dose was 6 Gy. The rats were divided into two groups. The first group of the animals (n=6) was used for control. The animals of the second group (n=6) 30-60 minutes before the irradiation were administered intravenously with 1 mg of peroxiredoxin Prx VI (1 ml of physiological solution at the peroxiredoxin concentration of 1 μg/ml). After the irradiation the animals were kept in common premises with sufficient amount of food, illumination and ventilation. For histological investigation animals with symptoms of worsened general conditions were chose from each group.

oxyhemoglobin = assay: Protection of oxyhemoglobin from the action of ionizing radiation; format: biochemical; conditions: about 50 μg/ml added before irradiation; 10 Gy; registered at 635 nm
Source text: The antiradiation properties of Prx Vlhum are investigated both in vitro, by investigating a solution of hemoglobin, and in vivo on animals. Irradiation of a solution of hemoglobin (see Example 10) leads to essential changes in its structure (appearance of peaks at 635 nm and an increase of light scattering), this being indicative of conversion of oxyhemoglobin to methemoglobin, followed by the aggregation thereof.
For checking the possibility of protecting biological macromolecules from destruction caused by ionizing radiation with the aid of peroxiredoxin, we have investigated the characteristics of irradiated oxyhemoglobin in control and in the presence of peroxiredoxin. In control we used a solution of oxyhemoglobin (0.16 D at 540 nm) in 0.1 M of Tris-HCl (pH 7.0) which was irradiated in a GUBE apparatus with the total exposure dose of 10 Gy. As the radioprotector peroxiredoxin Prx V1hum was used in different concentrations (5-100 μg/ml) in the presence of 50 μM of dithiothreitol. The formation of oxidized forms of oxyhemoglobin (methemoglobin) was registered at 635 nm, and aggregation of methemoglobin was registered at 700 nm.

[2] = Cytotoxicity: number of live line L929 cells; format: cell-based, human; conditions: 0.1-10 μg/ml concentration; Trypan stain
Method: (§1) The cytotoxicity is determined from the influence of recombinant Prx V1hum or of natural rat Prx V1rat on the level of proliferation of line L929 human lymphoblastoma cells and of T-lymphocytes from the spleen of line NRRI rats stimulated with concavalin A.
(§2) Cells of two lines with the concentration of 10^4 cells/ml medium were cultivated in RPMI 1640 containing 5% of bovine fetal serum. The stimulation of T-lymphocytes was carried out with the 0.1 μg/ml concentration of concavalin. In the case of T-lymphocytes the proliferation level was determined from the inclusion of ^3H-thymidine. The number of live line L929 cells was determined in a 96-cell plate with the aid of a Trypan stain, followed by scanning on a Multiscan multichannel photometer (LKB, Sweden).

[3] = tested on: T-lymphocytes from the spleen of line NRRI rats stimulated with concavalin A; assay: Proliferation of concanavalin A-stimulated T-lymphocytes (3H-thymidine inclusion); format: cell-based; conditions: 0.1-1.0 mg/ml concentration, against cells stimulated only with concavalin A
Method: as §1, §2

[4] = tested on: glutamine synthetase of E.coli; conditions: DTT/Fe3+/O2 oxidative system, 3 mM activator, 10 min at 37° C.; FIG. 3
Method: Comparison of the protector properties of recombinant full-size Prx Vlhum with the protector properties of natural rat Prx VIrat and with the protector properties of N-terminal ΔPrx V1hum in terms of protecting glutamine synthetase of E.coli from inactivation in a model oxidative system in vitro.
For determining the activity of different types of peroxiredoxins, their ability to protect glutamine synthetase from the DTT/Fe^+3/O2 oxidative system is measured. Glutamine synthetase is isolated from cells of the E.coli DH5α strain (Streicher S. L., Tyler B., 1980) and inactivated in the presence of a Fe^3+/O2 oxidative system and a peroxiredoxin activator—in the model oxidative system generating free radicals (Kim K. et al., 1988). […] The residual activity of glutamine synthetase is assessed by adding to the sample 200 μl of a reaction mixture which comprises: ADP, 0.4 mM; glutamine, 150 mM; K—AsO4, 10 mM; NH2OH, 20 mM; MnCl2, 0.4 mM; HEPES, 100 mM, pH 7.4. […] The protector properties of peroxiredoxin for protecting glutamine synthetase of E.coli from inactivation are determined as the ratio of the remaining activity of the enzyme after the inactivation in the presence of different concentrations of peroxiredoxin to the activity of non-inactivated glutamine synthetase.

skin cuts of rats = assay: Treating skin wounds (cuts) in rats; format: in vivo, rat; conditions: in 5 days; 0.5 mg/ml in 0.15 M NaCl, bandages changed once a day; against control; FIG. 10
Method: Rats were preliminarily narcotized by intraperitoneal introduction of hexenal (70 mg/kg). The animals were fixed on an operating table, and then 2-3 mm deep and 1 cm long cuts were made in the skin of both paws with the help of a razor blade. Control cuts were irrigated with physiological solution and a bactericidal plaster was applied; in the case of using peroxiredoxin, the wound was irrigated with a solution of recombinant Prx Vlhum or of its fragment ΔPrx Vlhum in 0.15 M NaCl in 0.5 mg/ml concentration, and a gauze bandage soaked with the same solutions was applied. The bandages were changed once a day.

[5] = Distribution of labeled peroxiredoxin in the organism after intravenous injection; format: in vivo, rat; conditions: 10 mg per animal, fluorescein-labeled
Method: For detecting the distribution of exogenous peroxiredoxin Prx VI in different tissues of the organism, a recombinant Prx V1hum labeled with fluorescein isocyanate was introduced into the rat's vein in an amount of 10 mg per animal. After definite periods of time the animals were sacrificed, the tissues of different organs were isolated, and luminescent analysis of the obtained samples was carried out. […] Thus, the method of introducing peroxiredoxin Prx VI by intravenous injection makes it possible to increase its content in almost all the tissues of the organism.

[6] = tested on: tracheal epithelium of rat after burn with vapors of hydrochloric acid; assay: Chemical burn (HCl vapors) of the upper respiratory tract of rat; format: in vivo
Method: The therapeutic properties of recombinant peroxiredoxin Prx V1hum in treating the upper respiratory tract of rat 24 hours after a burn were tested on a group of 4 Wistar line rats having a weight of 150-200 grams. The rats were analgized with analgin (100 mg/kg weight) and placed for 10 minutes into an exsiccator saturated with HCl vapors (the exsiccator volume was 10 liters, 20 animals were used). After the chemical burn, the rats were maintained for a definite period of time (40 min, 6 hrs, 1 day, 2 days, 14 days, 30 days), then narcotized with hexenal (300 mg/kg weight), and a sample of the tracheal epithelial tissue was isolated. For histochemical investigations the isolated sample was placed into a fixing solution containing 2% of formaldehyde and 0.5% of glutaraldehyde. The tissue was dehydrated .by sequential routing through ethyl alcohol with increasing concentration (40-100%). The tissue was embedded into LR white resin. The resin was polymerized at room temperature. 0.5 em-thick sections were made on an LKB ultratome (Sweden), using glass knives. The sections were stained with a hematoxylin-eosine and analyzed under a light microscope.
Maximum degradation of the epithelium is observed 24 hours after the burn, the ciliated cells which provide the mucus flow in the trachea being almost absent. Two weeks later a partial restoration of the ciliated cells is observed. […]

[7] = tested on: tracheal epithelium of rat after application of lipopolysaccharide; assay: Inflammation of rat tracheal epithelium caused by lipopolysaccharide (LPS); format: in vivo

B1: Prx VIhum: recombinant full-size human peroxiredoxin Prx VI, 224 amino acids (SEQ ID NO: 1), produced in E.coli (protein)
chain: MPGGLLLGDVAPNFEANTTVGRIRFHDFLGDSWGILFSHPRDFTPVCTTELGRAAKLAPEFAKRNVKLIALSIDSVEDHLAWSKDINAYNCEEPTEKLPFPIIDDRNRELAILLGMLDPAEKDEKGMPVTARVVFVFGPDKKLKLSILYPATTGRNFDEILRVVISLQLTAEKRVATPVDWKDGDSVMVLPTIPEEEAKKLFPKGVFTKELPSGKKYLRYTPQP
number of rats survived ([1]; 3 months, 6 Gy): 6 | number of rats survived ([1]; 6 months, 6 Gy): 5 | number of rats survived ([1]; 12 months, 6 Gy): 4 | number of rats survived ([1]; 15 months, 6 Gy): 4 | mortality of the rats ([1]; administered before irradiation, 6 Gy, versus control group): essentially lower than in the control group | general condition of the survived animals ([1]; one year after the irradiation, compared with the control group): differed markedly in favor of the second group | number of irradiation-associated malignant neoplasms ([1]; single injection into a vein 30 minutes before irradiation, 6 Gy): diminish the number of irradiation -associated malignant neoplasms | concentration of oxidized forms of hemoglobin (oxyhemoglobin): lowered almost to zero | effect on the number of live line L929 cells [2]: did not produce any effect | cell proliferation level of T-lymphocytes stimulated with concavalin A [3]: increased approximately twofold | protector properties: antioxidant characteristics in protecting glutamine synthetase from inactivation [4]: close to the natural rat peroxiredoxin Prx VIrat | healing of the wound (skin cuts of rats): almost complete healing of the wound | distribution among organs ([5]; 15 minutes after intravenous injection, luminescent analysis): uniformly distributes among all the organs of the rat, including the brain | amount in bone marrow ([5]; after intravenous injection): small, compared with other tissues | regeneration of tracheal epithelium (curative effect) ([6]; 14 days after burn, application started 24 hours after burn, once a day during 5 days, FIG. 7): almost complete regeneration of the ciliary cells of the epithelium | preservation of tracheal epithelial cells (protector effect) ([6]; application 1 hour after the burn, epithelium 24 hours after chemical burn, FIG. 6): Almost complete preservation of all epithelial cells | Integrity of tracheal epithelium (according to histological data) ([7]; Treatment 24 hours later for 5 days and the integrity of epithelium 2 weeks later): 80% | restoration of the epithelial tissue ([7]; after 2 weeks, single application into the trachea immediately after LPS, FIG. 9): almost complete restoration of the epithelial tissue
